The record followed here is US20240002531A1 (ONO PHARMACEUTICAL, published 2024).

Holding throughout (assay): peptide ELISA, OD 655 nm
A general note: An ELISA detects its analyte on a solid surface through an enzyme-linked reagent.

Test [1] addresses T1, HER2 peptide p603-622 (amino acids 603 to 622 of human HER2) (human).
T1 construct: Synthetic peptide; also called wild-type HER2 peptide
T1 peptide: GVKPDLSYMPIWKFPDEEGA

Test [2] deals with T2, G603A peptide (HER2 603-622 with G603A) (human).
T2 peptide: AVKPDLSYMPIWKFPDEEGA

In test [3] the target is T3, V604A peptide (HER2 603-622 with V604A) (human).
T3 peptide: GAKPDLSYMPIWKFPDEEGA

Test [4] deals with T4, K605A peptide (HER2 603-622 with K605A) (human).
T4 peptide: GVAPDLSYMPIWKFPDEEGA

The target of test [5] is T5, P606A peptide (HER2 603-622 with P606A) (human).
T5 peptide: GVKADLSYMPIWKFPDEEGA

The target in test [6] is T6, D607A peptide (HER2 603-622 with D607A) (human).
T6 peptide: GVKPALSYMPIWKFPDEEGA

Test [7] concerns the target T7, L608A peptide (HER2 603-622 with L608A) (human).
T7 peptide: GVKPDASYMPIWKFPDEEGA

Test [8] has as its target T8, S609A peptide (HER2 603-622 with S609A) (human).
T8 peptide: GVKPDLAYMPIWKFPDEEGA

For test [9], the target named is T9, Y610A peptide (HER2 603-622 with Y610A) (human).
T9 peptide: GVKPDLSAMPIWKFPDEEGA

Test [10] concerns the target T10, M611A peptide (HER2 603-622 with M611A) (human).
T10 peptide: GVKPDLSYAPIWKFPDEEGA

Test [11] concerns the target T11, P612A peptide (HER2 603-622 with P612A) (human).
T11 peptide: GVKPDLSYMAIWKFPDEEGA

Test [12] addresses T12, I613A peptide (HER2 603-622 with I613A) (human).
T12 construct: also called 1613A
T12 peptide: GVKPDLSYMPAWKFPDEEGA

The target of test [13] is T13, W614A peptide (HER2 603-622 with W614A) (human).
T13 peptide: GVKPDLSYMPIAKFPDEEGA

In test [14] the target is T14, F616A peptide (HER2 603-622 with F616A) (human).
T14 peptide: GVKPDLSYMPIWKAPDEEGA

The target in test [15] is T15, P617A peptide (HER2 603-622 with P617A) (human).
T15 peptide: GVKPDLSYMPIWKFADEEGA

Test [16] concerns the target T16, D618A peptide (HER2 603-622 with D618A) (human).
T16 peptide: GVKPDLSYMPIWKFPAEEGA

Test [17] addresses T17, E619A peptide (HER2 603-622 with E619A) (human).
T17 peptide: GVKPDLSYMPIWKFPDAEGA

The target of test [18] is T18, E620A peptide (HER2 603-622 with E620A) (human).
T18 peptide: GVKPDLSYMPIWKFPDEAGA

The target of test [19] is T19, G621A peptide (HER2 603-622 with G621A) (human).
T19 peptide: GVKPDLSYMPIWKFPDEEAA

Test [20] addresses T20, HER2_604-622C peptide (NH2-VKPDLSYMPIWKFPDEEGAC-COOH) (human).
T20 construct: KLH was added for immunisation, the peptide itself was coated in the screening ELISA
T20 peptide: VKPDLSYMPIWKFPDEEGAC

Test [21] deals with T13, W614A peptide (HER2 603-622 with W614A).
The target in test [22] is T14, F616A peptide (HER2 603-622 with F616A).
In test [23] the target is T21, K615A peptide (HER2 603-622 with K615A) (human).
T21 peptide: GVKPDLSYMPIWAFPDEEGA

Where two headings read alike, the source gives them in different places.

B1: H2Mab-296 antibody (antibody, mouse IgG1, kappa, V domains shown)
VH: QVTLKESGPGILQPSQTLSLTCSFSGFSLSTSGMGVGWIRQPSGKGLEWLAHIWWDDDKRYNPALKSRLTISKDTSSNQVFLKIANVDTSDTATYYCSRIEGQRGFAYWGQGTLVTVSA
VL: DIVMSQSPSSLAVSVGEMITMTCKSSQSLLYSRNQKNYLAWYQQKPGQSPKLLIYWASTRESGVPDRFTGSGSGTDFTLTISSVKAEDLAVYYCQQYYSQPYTFGGGTKLEIKR
B1: the binding result in test [1], in test [2], in [3], in test [4], in test [5] and in test [6] was “binds” in each case. Besides, the binding result in [7], in test [8], in test [9], in test [10], in test [11] and in test [12] was “binds” each time. For the same molecule, the binding result in [13] is reported as “binds”; in test [14] it was “no binding (tested: 10 ug/ml)”; in test [15] it was “binds”; in [16] it was “binds”; in [17] it was “binds”; in test [18], “binds”. The binding result in [19] and in test [20] was “binds” each time.

B2: H2Mab-286 antibody (antibody, mouse IgG1, kappa, V domains shown)
VH: DVQLQESGPGLVKPSQSLSLTCTVTGYSITSDYGWNWIRQFPGNKLEWMGYIRYSGITSYNPSLKSRISITRDTSKNQFFLQLNSVTTEDTATYYCTREVLSWGQGTTLTVSS
VL: DVVMTQTPLSLPVSLGDQASISCRSSQSLVHSNGNTYLHWFLQKPGQSPKLLIYKVSNRFSGVPARFSGSGSGTDFTLKISRVEAEDLGVYFCSQSTHVPPTFGGGTKLEIKR
Turning to B2, the binding result in test [21] and in test [22] was “no binding (tested: 10 ug/ml)” in each case.

B3: H2Mab-298 antibody (antibody, mouse IgG1, kappa, V domains shown)
VH: DVKLVESGGGLVKPGGSLKLSCAASGFTFSRYSMSWVRQTPEKKLEWVAIISTGGSYMFYPDSAKGRFTISRDDAKNTLYLQMSSLKSEDTAMYYCTREAGDYWGQGTTLTVSS
VL: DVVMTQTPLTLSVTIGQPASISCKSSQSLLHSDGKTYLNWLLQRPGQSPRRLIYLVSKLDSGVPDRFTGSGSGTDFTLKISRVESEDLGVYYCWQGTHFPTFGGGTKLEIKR
Regarding B3, the binding result in test [1], in [2], in test [3], in test [4], in [5] and in test [6] was “binds” throughout. Further, the binding result in test [7], in test [8], in test [9], in test [10], in test [11] and in test [12] was “binds” in each case. For the same molecule, the binding result in [13], in test [23], in test [14], in [15], in [16] and in test [17] was “binds” each time. In addition, the binding result in test [18], in test [19] and in test [20] was “binds” throughout.
